Publication PMC4526809
Where “and” joins values, the source holds several entries; their conditions need not be identical. Identical values can stand only once.

How the values were obtained:
[1] = target: His6-tagged B. cereus C-SpoIISA (pETDuetCIISA Bc; pETDuetCIISAB Bc) (Bacillus cereus ATCC 14579) (UniProt Q81DD1); test: cross-linking; 80 μg Ni-purified His6-C-SpoIISA with glutaraldehyde (5 μl of 2.3% in 100 μl), 30 min, 37°C; 12% SDS-PAGE and Western blot
[2] = target: untagged B. cereus C-SpoIISA (Bacillus cereus ATCC 14579) (UniProt Q81DD1); test: SEC; purified untagged C-SpoIISA on Superose 6 10/300 GL, 0.4 ml/min, absorbance at 280 nm

Substance	stoichiometry N [1]	stoichiometry N [2]
His6-tagged B. cereus C-SpoIISA (pETDuetCIISA Bc; pETDuetCIISAB Bc) (from UniProt Q81DD1 1-245) (domain or fragment)	2 and 3	–
untagged B. cereus C-SpoIISA (from UniProt Q81DD1 1-245) (domain or fragment)	–	2 and 3
